Data as given in patent publication US20140105889A1 (published 2014).
Changes are numbered by the printed parent chain.

T1: human FcγRIIa type H (human, UniProt P12318 36-217)
T1 construct: also called FcgRIIaH; FcγRIIa(H)
T1 sequence: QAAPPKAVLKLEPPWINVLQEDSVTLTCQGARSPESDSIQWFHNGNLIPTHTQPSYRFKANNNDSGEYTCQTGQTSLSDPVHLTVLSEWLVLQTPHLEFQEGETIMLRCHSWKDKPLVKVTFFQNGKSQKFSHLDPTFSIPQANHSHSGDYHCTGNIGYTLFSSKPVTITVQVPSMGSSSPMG

T2: human FcγRIIb (human, UniProt P31994 43-217)
T2 construct: also called FcgRIIb; FcγIIB
T2 sequence: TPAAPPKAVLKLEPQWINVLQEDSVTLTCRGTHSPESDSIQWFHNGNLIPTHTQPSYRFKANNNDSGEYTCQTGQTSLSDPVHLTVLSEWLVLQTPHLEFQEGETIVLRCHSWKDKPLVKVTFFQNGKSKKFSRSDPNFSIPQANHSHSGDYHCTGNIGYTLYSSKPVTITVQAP

T3: human FcγRIIa type R (human, UniProt P12318 36-217)
T3 construct: also called FcgRIIaR; FcγRIIa(R)
T3 chain: T1 sequence with H133R

B1: IL6R-BP084/IL6R-L (antibody, human IgG1)
heavy: QVQLQESGPGLVKPSETLSLTCAVSGHSISHDHAWSWVRQPPGEGLEWIGFISYSGITNYNPSLQGRVTISRDNSKNTLYLQMNSLRAEDTAVYYCARSLARTTAMDYWGEGTLVTVSSASTKGPSVFPLAPSSKSTSGGTAALGCLVKDYFPEPVTVSWNSGALTSGVHTFPAVLQSSGLYSLSSVVTVPSSSLGTQTYICNVNHKPSNTKVDKKVEPKSCDKTHTCPPCPAPELLGGDSVFLFPPKPKDTLMISRTPEVTCVVVDVSHEDPEVKFNWYVDGVEVHNAKTKPREEQYNSTYRVVSVLTVLHQDWLNGKEYKCKMSNKALPKPIEKTISKAKGQPREPQVYTLPPSRDELTKNQVSLTCLVKGFYPSDIAVEWESNGQPENNYKTTPPVLDSDGSFFLYSKLTVDKSRWQQGNVFSCSVMHEALHNHYTQESLSLSP
light: DIQMTQSPSSLSASVGDRVTITCRASQDISSYLNWYQQKPGKAPKLLIYYTSRLHSGVPSRFSGSGSGTDFTFTISSLQPEDIATYYCQQGNTLPYTFGQGTKVEIK
B2: IL6R-BP087/IL6R-L (antibody, human IgG1)
heavy: B1 heavy with L236Y, M325V
light: B1 light
B3: IL6R-BP132/IL6R-L (antibody, human IgG1)
heavy: B1 heavy with E235D, M325V, K328A
light: B1 light
B4: IL6R-BP180/IL6R-L (antibody, human IgG1)
heavy: B1 heavy with G239D, P273G, M325V
light: B1 light
B5: IL6R-BP185/IL6R-L (antibody, human IgG1)
heavy: B1 heavy with E235D, L236Y, G239D, P273G, M325V, K328A
light: B1 light
B6: IL6R-BP150/IL6R-L (antibody, human IgG1)
heavy: B1 heavy with L236Y, G239D, M325V, K328A, K332R
light: B1 light
B7: IL6R-BP183/IL6R-L (antibody, human IgG1)
heavy: B1 heavy with E235D, L236Y, P273G, M325V, K328A
light: B1 light
B8: IL6R-BP148/IL6R-L (antibody, human IgG1)
heavy: B1 heavy with E235D, L236Y, G239D, M325V, K328A
light: B1 light
B9: IL6R-BP085/IL6R-L (antibody, human IgG1)
heavy: B1 heavy with G239D, M325V
light: B1 light
B10: IL6R-BP088/IL6R-L (antibody, human IgG1)
heavy: B1 heavy with G239D, M325V, K328A
light: B1 light
B11: IL6R-BP144/IL6R-L (antibody, human IgG1)
heavy: B1 heavy with G239D, M325V, K328A, K332A
light: B1 light

target: T1, human FcγRIIa type H; experiment: SPR (Biacore), FcγR over captured antibody; binding amount / that of IL6R-BF648/IL6R-L x100
Method: (§1) According to the following method, relative binding activities were calculated for the results of analyzing interactions with the respective FcγRs.

In order of rising relative binding activity:
1. B11  108 % of IL6R-BF648/IL6R-L
2. B3  130 % of IL6R-BF648/IL6R-L
3. B9  158 % of IL6R-BF648/IL6R-L
4. B1  162 % of IL6R-BF648/IL6R-L
5. B10  166 % of IL6R-BF648/IL6R-L
6. B2  179 % of IL6R-BF648/IL6R-L
7. B7  191 % of IL6R-BF648/IL6R-L
8. B4  203 % of IL6R-BF648/IL6R-L
9. B5  446 % of IL6R-BF648/IL6R-L
10. B8  462 % of IL6R-BF648/IL6R-L
11. B6  770 % of IL6R-BF648/IL6R-L

target: T2, human FcγRIIb; experiment: as above
Method: as §1

In order of rising relative binding activity:
1. B11  121 % of IL6R-BF648/IL6R-L
2. B2  137 % of IL6R-BF648/IL6R-L
3. B1  141 % of IL6R-BF648/IL6R-L
4. B3  150 % of IL6R-BF648/IL6R-L
5. B9  152 % of IL6R-BF648/IL6R-L
6. B10  161 % of IL6R-BF648/IL6R-L
7. B7  164 % of IL6R-BF648/IL6R-L
8. B8  176 % of IL6R-BF648/IL6R-L
9. B4  179 % of IL6R-BF648/IL6R-L
10. B5  179 % of IL6R-BF648/IL6R-L
11. B6  183 % of IL6R-BF648/IL6R-L

Target: T3, human FcγRIIa type R
Experiment: as above
Method: as §1

In order of falling relative binding activity:
1. B6  757 % of IL6R-BF648/IL6R-L
2. B5  670 % of IL6R-BF648/IL6R-L
3. B8  603 % of IL6R-BF648/IL6R-L
4. B4  602 % of IL6R-BF648/IL6R-L
5. B7  423 % of IL6R-BF648/IL6R-L
6. B10  377 % of IL6R-BF648/IL6R-L
7. B9  279 % of IL6R-BF648/IL6R-L
8. B11  204 % of IL6R-BF648/IL6R-L
9. B1  203 % of IL6R-BF648/IL6R-L
10. B3  191 % of IL6R-BF648/IL6R-L
11. B2  163 % of IL6R-BF648/IL6R-L

target: T4, human FcγRIIIa type V (human, UniProt P08637 17-208, limits assumed); experiment: as above
T4 construct: Allotype V158 was used; also called FcgRIIIaV; FcγRIIIa(V)
T4 sequence (P08637 other isoform, or with tags, fused parts or gaps limits assumed): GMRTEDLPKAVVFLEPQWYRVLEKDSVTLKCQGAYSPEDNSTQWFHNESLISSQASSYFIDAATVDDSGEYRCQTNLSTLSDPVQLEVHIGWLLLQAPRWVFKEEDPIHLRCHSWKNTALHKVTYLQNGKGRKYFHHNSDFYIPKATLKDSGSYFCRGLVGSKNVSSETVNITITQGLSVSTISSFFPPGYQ
Method: as §1

In order of falling relative binding activity:
1. B8  227 % of IL6R-BF648/IL6R-L
2. B6  204 % of IL6R-BF648/IL6R-L
3. B5  191 % of IL6R-BF648/IL6R-L
4. B2  158 % of IL6R-BF648/IL6R-L
5. B11  128 % of IL6R-BF648/IL6R-L
6. B10  122 % of IL6R-BF648/IL6R-L
7. B3  120 % of IL6R-BF648/IL6R-L
8. B7  113 % of IL6R-BF648/IL6R-L
9. B1  106 % of IL6R-BF648/IL6R-L
10. B9  104 % of IL6R-BF648/IL6R-L
11. B4  100 % of IL6R-BF648/IL6R-L

target: T5, human FcγRIa (human, UniProt P12314 16-292, limits assumed); experiment: as above
T5 construct: also called FcgRIa; CD64
T5 sequence (P12314 16-292 limits assumed): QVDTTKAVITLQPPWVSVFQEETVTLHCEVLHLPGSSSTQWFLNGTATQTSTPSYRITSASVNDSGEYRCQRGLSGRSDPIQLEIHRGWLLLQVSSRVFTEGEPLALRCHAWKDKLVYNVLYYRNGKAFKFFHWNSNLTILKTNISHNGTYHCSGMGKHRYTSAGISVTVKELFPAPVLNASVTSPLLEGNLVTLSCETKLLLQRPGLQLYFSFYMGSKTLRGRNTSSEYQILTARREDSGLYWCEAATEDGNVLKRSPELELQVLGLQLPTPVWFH
Method: as §1

In order of rising relative binding activity:
1. B9  19 % of IL6R-BF648/IL6R-L
2. B10  25 % of IL6R-BF648/IL6R-L
3. B4  29 % of IL6R-BF648/IL6R-L
4. B6  30 % of IL6R-BF648/IL6R-L
5. B2  33 % of IL6R-BF648/IL6R-L
6. B8  33 % of IL6R-BF648/IL6R-L
7. B5  47 % of IL6R-BF648/IL6R-L
8. B11  64 % of IL6R-BF648/IL6R-L
9. B7  83 % of IL6R-BF648/IL6R-L
10. B3  91 % of IL6R-BF648/IL6R-L
11. B1  109 % of IL6R-BF648/IL6R-L
